Results: paper PMC3796444 (PLoS ONE, 2013)

How the values were obtained:
[1] = molecular target: Hsc70 chaperones of the rabbit reticulocyte lysate (rabbit (endogenous in rabbit reticulocyte lysate)); experiment: co-IP; AGT variants made with 35S-Met in rabbit reticulocyte lysate (TnT) at 30°C for 2 h, stopped with cycloheximide; immunoprecipitation with anti-Hsc70 antibodies; SDS-PAGE and fluorography
[2] = molecular target: the molecule itself; experiment: SEC; purified recombinant AGT variants; single peak, elution volume of a ≈90 kDa dimer; data not shown
[3] = substrate: C[C@H](N)C(=O)O; experiment: LDH-coupled pyruvate assay, global double-displacement fit; assay type: biochemical, Homo sapiens; settings: glyoxylate 0-5 mM, 150 µM PLP, 0.1 M Na-phosphate pH 8, 25°C
From the text: (§1) LDH-coupled pyruvate assay, global double-displacement fit on alanine:glyoxylate aminotransferase (AGT), AGT WT (major allele)

[4] = substrate: O=CC(=O)O; experiment: as above; assay type: biochemical, Homo sapiens; settings: L-alanine 0-100 mM, 150 µM PLP, 0.1 M Na-phosphate pH 8, 25°C
From the text: as §1

Molecule: alanine:glyoxylate aminotransferase p.P11L, made in a cell-free system (from UniProt P21549 1-392) (enzyme)
- fold increase in immunoprecipitated AGT compared to WT [1]: 4 fold

Molecule: alanine:glyoxylate aminotransferase p.H83R on the minor allele, made in a cell-free system (from UniProt P21549 1-392) (enzyme)
- fold increase in immunoprecipitated AGT compared to WT [1]: 4.8 fold

Molecule: alanine:glyoxylate aminotransferase p.P319L on the minor allele, made in a cell-free system (from UniProt P21549 1-392) (enzyme)
- fold increase in immunoprecipitated AGT compared to WT [1]: 7 fold

Molecule: alanine:glyoxylate aminotransferase minor allele (p.P11L/I340M), made in a cell-free system (from UniProt P21549 1-392) (enzyme)
- fold increase in immunoprecipitated AGT compared to WT [1]: 4 fold

B1: alanine:glyoxylate aminotransferase, wild type (major allele), recombinant His-tagged (enzyme, human)
chain: MASHKLLVTPPKALLKPLSIPNQLLLGPGPSNLPPRIMAAGGLQMIGSMSKDMYQIMDEIKEGIQYVFQTRNPLTLVISGSGHCALEAALVNVLEPGDSFLVGANGIWGQRAVDIGERIGARVHPMTKDPGGHYTLQEVEEGLAQHKPVLLFLTHGESSTGVLQPLDGFGELCHRYKCLLLVDSVASLGGTPLYMDRQGIDILYSGSQKALNAPPGTSLISFSDKAKKKMYSRKTKPFSFYLDIKWLANFWGCDDQPRMYHHTIPVISLYSLRESLALIAEQGLENSWRQHREAAAYLHGRLQALGLQLFVKDPALRLPTVTTVAVPAGYDWRDIVSYVIDHFDIEIMGGLGPSTGKVLRIGLLGCNATRENVDRVTEALRAALQHCPKKKL
notes: alanine:glyoxylate aminotransferase (AGT), human, major allele; also called AGT WT; WT; source: E. coli BL21 (pCOLDII), purified (IMAC, SEC)
- stoichiometry N [2]: 2
- Km [3]: 19.5 ± 1.4 mM
- Km [4]: 0.245 ± 0.029 mM

B2: alanine:glyoxylate aminotransferase p.P319L on the minor allele, recombinant His-tagged (enzyme, human, UniProt P21549 1-392, looked up)
chain: MASHKLLVTPLKALLKPLSIPNQLLLGPGPSNLPPRIMAAGGLQMIGSMSKDMYQIMDEIKEGIQYVFQTRNPLTLVISGSGHCALEAALVNVLEPGDSFLVGANGIWGQRAVDIGERIGARVHPMTKDPGGHYTLQEVEEGLAQHKPVLLFLTHGESSTGVLQPLDGFGELCHRYKCLLLVDSVASLGGTPLYMDRQGIDILYSGSQKALNAPPGTSLISFSDKAKKKMYSRKTKPFSFYLDIKWLANFWGCDDQPRMYHHTIPVISLYSLRESLALIAEQGLENSWRQHREAAAYLHGRLQALGLQLFVKDPALRLLTVTTVAVPAGYDWRDIVSYVMDHFDIEIMGGLGPSTGKVLRIGLLGCNATRENVDRVTEALRAALQHCPKKKL
notes: alanine:glyoxylate aminotransferase (AGT), human, PH1 mutation p.P319L in the minor allele; source: E. coli BL21 (pCOLDII), purified (IMAC, SEC)
- stoichiometry N [2]: 2

B3: alanine:glyoxylate aminotransferase p.A368T on the minor allele, recombinant His-tagged (enzyme, human, UniProt P21549 1-392, looked up)
chain: MASHKLLVTPLKALLKPLSIPNQLLLGPGPSNLPPRIMAAGGLQMIGSMSKDMYQIMDEIKEGIQYVFQTRNPLTLVISGSGHCALEAALVNVLEPGDSFLVGANGIWGQRAVDIGERIGARVHPMTKDPGGHYTLQEVEEGLAQHKPVLLFLTHGESSTGVLQPLDGFGELCHRYKCLLLVDSVASLGGTPLYMDRQGIDILYSGSQKALNAPPGTSLISFSDKAKKKMYSRKTKPFSFYLDIKWLANFWGCDDQPRMYHHTIPVISLYSLRESLALIAEQGLENSWRQHREAAAYLHGRLQALGLQLFVKDPALRLPTVTTVAVPAGYDWRDIVSYVMDHFDIEIMGGLGPSTGKVLRIGLLGCNTTRENVDRVTEALRAALQHCPKKKL
notes: alanine:glyoxylate aminotransferase (AGT), human, PH1 mutation p.A368T in the minor allele; source: E. coli BL21 (pCOLDII), purified (IMAC, SEC)
- stoichiometry N [2]: 2

B4: alanine:glyoxylate aminotransferase p.F152I on the minor allele, recombinant His-tagged (enzyme, human, UniProt P21549 1-392, looked up)
chain: MASHKLLVTPLKALLKPLSIPNQLLLGPGPSNLPPRIMAAGGLQMIGSMSKDMYQIMDEIKEGIQYVFQTRNPLTLVISGSGHCALEAALVNVLEPGDSFLVGANGIWGQRAVDIGERIGARVHPMTKDPGGHYTLQEVEEGLAQHKPVLLILTHGESSTGVLQPLDGFGELCHRYKCLLLVDSVASLGGTPLYMDRQGIDILYSGSQKALNAPPGTSLISFSDKAKKKMYSRKTKPFSFYLDIKWLANFWGCDDQPRMYHHTIPVISLYSLRESLALIAEQGLENSWRQHREAAAYLHGRLQALGLQLFVKDPALRLPTVTTVAVPAGYDWRDIVSYVMDHFDIEIMGGLGPSTGKVLRIGLLGCNATRENVDRVTEALRAALQHCPKKKL
notes: alanine:glyoxylate aminotransferase (AGT), human, PH1 mutation p.F152I in the minor allele; source: E. coli BL21 (pCOLDII), purified (IMAC, SEC)
- stoichiometry N [2]: 2
